The source of these data is paper PMC9177846, “Targeting parvalbumin promotes M2 macrophage polarization and energy expenditure in mice” (Nature Communications, 2022).

Broadly, the Kd is the constant that tells how readily two partners part at equilibrium.

Experiment [1] addresses T1, GFP-tagged CSF1R immunoprecipitated from HEK293T cells (UniProt P09581 20-298).
T1 sequence: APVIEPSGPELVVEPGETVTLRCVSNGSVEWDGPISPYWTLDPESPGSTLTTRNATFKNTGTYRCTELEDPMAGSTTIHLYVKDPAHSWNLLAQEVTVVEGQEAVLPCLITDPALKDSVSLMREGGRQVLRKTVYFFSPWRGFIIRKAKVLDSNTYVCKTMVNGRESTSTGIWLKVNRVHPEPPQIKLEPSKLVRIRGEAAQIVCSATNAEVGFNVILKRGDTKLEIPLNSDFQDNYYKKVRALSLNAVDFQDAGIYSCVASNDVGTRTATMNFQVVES
Description: cell-based or functional assay.

For experiment [2], the target named is T2, CSF1R protein immobilised for SPR (UniProt P09581 20-298).
T2 construct: CSF1R protein used at 30 µg/ml for covalent immobilisation
T2 sequence: T1 sequence
The experiment can be described thus: SPR; Open SPR (Nicoya); CSF1R (30 µg/ml) covalently immobilised on COOH sensor chip by EDC/NHS; parvalbumin injected from low to high concentrations, 20 µl/min for 5 min; analysed with Trace Drawer. As to conditions: both partners purified. In general terms: Surface plasmon resonance follows binding to a sensor surface in real time, without labels.

The target of experiment [3] is T3, GFP-tagged CSF1R immunoprecipitated from HEK293T cells (UniProt P09581).
T3 sequence: T1 sequence

B1: parvalbumin (recombinant protein) (natural protein, UniProt P32848 1-110, looked up)
chain: MSMTDVLSAEDIKKAIGAFAAADSFDHKKFFQMVGLKKKNPDEVKKVFHILDKDKSGFIEEDELGSILKGFSSDARDLSAKETKTLLAAGDKDGDGKIGVEEFSTLVAES
notes: parvalbumin, recombinant; The only source printed for a recombinant parvalbumin is human parvalbumin 15333-H08E (Sino Biological), named for the PBMC experiments only; also called PVALB; rPVLAB; source: recombinant protein
For the molecule B1, the “ELK1-Luc reporter: concentration-response of parvalbumin on CSF1R activation in the presence of MCSF (IC50)” value in experiment [1] came to 3.26 nM. The same molecule came in with a Kd in experiment [2] of 3650 nM.

B2: Macrophage colony-stimulating factor (ligand)
chain: KEVSEHCSHMIGNGHLKVLQQLIDSQMETSCQIAFEFVDQEQLDDPVCYLKKAFFLVQDIIDETMRFKDNTPNANATERLQELSNNLNSCFTKDYEEQNKACVRTFHETPLQLLEKIKNFFNETKNLLEKDWNIFTKNCNNSFAKCSSRDVVTKPDCNCLYPKATPSSDPASASPHQPPAPSMAPLAGLAWDDSQRTEGSSLLPSELPLRIEDPGSAKQRPPRSTCQTLESTEQPNHGDRLTEDSQPHPSAGGPVPGVEDILESSLGTNWVLEEASGEASEGFLTQEAKFSPSTPVGGSIQAETDRPRALSASPFPKSTEDQKPVDITDRPLTEVNPMRPIGQTQNNTPEKTDGTSTLREDHQEPGSPHIATPNPQRVSNSATPVAQLLLPKSHSWGIVLPLGELEGKRSTRDRRSPAELEGGSASEGAARPVARFNSIPLTDTGHVEQHEGSSDPQIPESVFHLLVPGIILVLLTVGGLLFYKWKWRSHRDPQTLDSSVGRPEDSSLTQDEDRQVELPV
In turn, B2 had an ELK1-Luc reporter: concentration-response of MCSF on CSF1R activation in cells stably expressing CSF1R (EC50) in experiment [3] of 0.36 nM.
